Measurements published in US20230295327A1.

Target: IL-12 receptor of human T cells (human) (UniProt P42701)
Test: cell-based or functional assay

Sequence of IL-12 receptor of human T cells (human) (Q99665 24-862, chain 2 of 2, other chains not shown): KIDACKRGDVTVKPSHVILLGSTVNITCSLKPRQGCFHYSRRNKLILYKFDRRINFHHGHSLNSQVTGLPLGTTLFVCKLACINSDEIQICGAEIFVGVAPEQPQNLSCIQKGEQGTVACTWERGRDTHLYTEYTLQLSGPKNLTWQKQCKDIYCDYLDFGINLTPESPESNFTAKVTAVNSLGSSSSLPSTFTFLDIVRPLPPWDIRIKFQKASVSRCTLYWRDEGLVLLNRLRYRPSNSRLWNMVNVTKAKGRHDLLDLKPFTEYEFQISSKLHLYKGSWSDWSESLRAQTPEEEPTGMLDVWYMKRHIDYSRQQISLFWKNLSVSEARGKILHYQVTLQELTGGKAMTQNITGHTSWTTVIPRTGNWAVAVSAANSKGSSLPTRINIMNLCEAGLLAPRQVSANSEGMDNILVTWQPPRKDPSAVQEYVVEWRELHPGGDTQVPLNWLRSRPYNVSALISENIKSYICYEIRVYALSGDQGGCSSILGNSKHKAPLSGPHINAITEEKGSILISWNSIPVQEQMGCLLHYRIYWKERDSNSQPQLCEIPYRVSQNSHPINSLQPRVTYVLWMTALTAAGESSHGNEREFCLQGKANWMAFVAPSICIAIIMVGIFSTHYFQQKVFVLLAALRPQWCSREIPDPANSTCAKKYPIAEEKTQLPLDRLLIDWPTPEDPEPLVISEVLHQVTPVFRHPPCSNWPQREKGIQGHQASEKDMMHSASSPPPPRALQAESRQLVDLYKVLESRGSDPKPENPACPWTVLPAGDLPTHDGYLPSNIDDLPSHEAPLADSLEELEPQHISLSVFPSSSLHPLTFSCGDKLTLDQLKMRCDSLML

p-STAT4 (Tyr693) AlphaLISA in activated human T cells, EC50: 0.195 ng/mL
Substance: recombinant human IL-12 (from UniProt P29459 23-219; P29460 23-328) (ligand)
